Reference: article PMC6121587, “In Vitro Inhibitory Mechanism Effect of TRAIP on the Function of TRAF2 Revealed by Characterization of Interaction Domains” (International Journal of Molecular Sciences, 2018)
Values joined by “and” are separate entries in the source; they are usually repeats but may differ in a detail not shown here. Equal entries are not always repeated.

B1: TRAF1 TRAF-N coiled-coil domain (amino acids 181-244) (domain or fragment, UniProt Q13077 181-244, looked up)
chain: FMKEKLLAELEGKLRVFENIVAVLNKEVEASHLALATSIHQSQLDRERILSLEQRVVELQQTLA
notes: TNF receptor-associated factor 1 (TRAF1), TRAF-N coiled-coil domain, amino acids 181-244; also called TRAF1 TRAF-N CC
B2: TRAIP RING domain plus coiled-coil domain (TRAIP RING-CC, residues 1-157) (domain or fragment, human, UniProt Q9BWF2 1-157, looked up)
chain: MPIRALCTICSDFFDHSRDVAAIHCGHTFHLQCLIQWFETAPSRTCPQCRIQVGKRTIINKLFFDLAQEEENVLDAEFLKNELDNVRAQLSQKDKEKRDSQVIIDTLRDTLEERNATVVSLQQALGKAEMLCSTLKKQMKYLEQQQDETKQAQEEAR
notes: Exists in different forms and higher-order oligomers; calculated monomer mass with the tag 18,893 Da; not shown: His6, C-terminal, kept
B3: TRAIP coiled-coil domain (TRAIP CC, residues 72-167) (domain or fragment, human, UniProt Q9BWF2 72-167, looked up)
chain: NVLDAEFLKNELDNVRAQLSQKDKEKRDSQVIIDTLRDTLEERNATVVSLQQALGKAEMLCSTLKKQMKYLEQQQDETKQAQEEARRLRSKMKTME
notes: Trimer by SEC and MALS at high concentration, dimer by AUC at low concentration; calculated monomer mass with the tag 12,425 Da; not shown: His6, C-terminal, kept
B4: TRAF2 TRAF-N coiled-coil domain (amino acids 264-329) (domain or fragment, human, UniProt Q12933 264-329, looked up)
chain: AGSELLQRCESLEKKTATFENIVCVLNREVERVAMTAEACSRQHRLDQDKIEALSSKVQQLERSIG
notes: TNF receptor-associated factor 2 (TRAF2), human, TRAF-N coiled-coil domain, amino acids 264-329; Trimer by SEC; dimer and possible trimer by AUC. 'Human' is said of the TRAF2 TRAF domain in the same methods paragraph, not of this construct itself; also called TRAF2 TRAF-N CC; TRAF2 CC

Columns and labels:
[1] = biological target: TRAF4 TRAF domain (TRAF-N and TRAF-C) (human); test: SEC; single purified protein on Superdex 200 10/30, 20 mM Tris-HCl pH 8.0, 150 mM NaCl
[2] = biological target: TRAF2 TRAF domain (TRAF-N and TRAF-C) (human); test: as above
[3] = biological target: the molecule itself; test: as above
[4] = biological target: the molecule itself; test: AUC; sedimentation velocity, 20 °C, 2 mg/mL, 20 mM Tris-HCl pH 8.0, 150 mM NaCl, 45,000 rpm, 280 nm, SEDFIT c(s); the paper calls the TRAIP CC concentration low
[5] = biological target: the molecule itself; test: SEC + SEC-MALS; TRAIP CC alone, high concentration; Superdex 200 10/30; MALS on mini-DAWN treos
[6] = biological target: B2; test: native gel or EMSA; Native PAGE shift assay of mixtures of two purified proteins, Phast System, 8-25% gradient gel, Coomassie; conditions: both partners purified

TRAF4 TRAF domain (TRAF-N and TRAF-C) (domain or fragment)
stoichiometry N [1]: 3

TRAF2 TRAF domain (TRAF-N and TRAF-C) (domain or fragment)
stoichiometry N [2]: 3

B1
stoichiometry N [3]: 3

B2
binding result [3]: binds

B3
stoichiometry N [4]: 2 | stoichiometry N [5]: 3

B4
stoichiometry N [4]: 2 and 3 | binding result [6]: binds
